Experimental data: publication PMC7916480, “Functional and Structural Characterization of Nucleic Acid Ligands That Bind to Activated Coagulation Factor XIII”

T1: FXIIIa (activated coagulation factor XIII) (human, UniProt P00488 39-732)
T1 sequence: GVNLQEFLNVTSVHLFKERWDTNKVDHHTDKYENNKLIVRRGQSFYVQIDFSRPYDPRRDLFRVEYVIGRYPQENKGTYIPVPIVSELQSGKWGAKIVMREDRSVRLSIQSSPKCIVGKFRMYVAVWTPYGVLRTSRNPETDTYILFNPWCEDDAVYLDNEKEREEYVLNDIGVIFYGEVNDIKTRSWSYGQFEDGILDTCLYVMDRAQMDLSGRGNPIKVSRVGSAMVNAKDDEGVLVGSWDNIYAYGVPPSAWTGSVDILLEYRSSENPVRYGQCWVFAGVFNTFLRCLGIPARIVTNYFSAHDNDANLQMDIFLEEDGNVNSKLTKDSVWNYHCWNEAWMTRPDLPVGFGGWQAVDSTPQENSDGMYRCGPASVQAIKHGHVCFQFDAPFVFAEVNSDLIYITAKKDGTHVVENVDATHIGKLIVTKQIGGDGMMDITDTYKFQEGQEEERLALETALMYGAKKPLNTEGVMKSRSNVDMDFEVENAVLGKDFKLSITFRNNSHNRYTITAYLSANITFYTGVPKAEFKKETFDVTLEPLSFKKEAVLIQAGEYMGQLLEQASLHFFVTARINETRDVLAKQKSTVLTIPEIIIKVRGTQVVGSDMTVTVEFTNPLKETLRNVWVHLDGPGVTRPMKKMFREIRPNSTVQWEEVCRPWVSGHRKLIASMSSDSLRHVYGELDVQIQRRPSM


Tests used:
[1] = target: activated coagulation factor XIII (FXIIIa), recombinant human (human) (UniProt P00488)
[2] = target: T1, FXIIIa (activated coagulation factor …); experiment: BLI; BLI (BLItz, SAX sensors, 3'-biotinylated aptamer 1 µM) in binding buffer, 2200 rpm; buffer composition, pH and temperature not in material; plate capture 30 min; fibrinogen competition 30 min at RT; settings: protein: recombinant; chain copies: 2; label: 3'-biotin (BLI, capture, fibrinogen assay)
[3] = target: T1, FXIIIa (activated coagulation factor …); experiment: competition; competition with immobilized fibrinogen, 25 nM FXIIIa; BLI (BLItz, SAX sensors, 3'-biotinylated aptamer 1 µM) in binding buffer, 2200 rpm; buffer composition, pH and temperature not in material; plate capture 30 min; fibrinogen competition 30 min at RT; settings: protein: recombinant; chain copies: 2; label: 3'-biotin (BLI, capture, fibrinogen assay)
[4] = target: T1, FXIIIa (activated coagulation factor …); experiment: pull-down (aptamer-coated plate, activity read-out); 30 nM FXIIIa; BLI (BLItz, SAX sensors, 3'-biotinylated aptamer 1 µM) in binding buffer, 2200 rpm; buffer composition, pH and temperature not in material; plate capture 30 min; fibrinogen competition 30 min at RT; settings: protein: recombinant; chain copies: 2; label: 3'-biotin (BLI, capture, fibrinogen assay)
[5] = target: T1, FXIIIa (activated coagulation factor …); experiment: competition; competition with immobilized fibrinogen; not affected; BLI (BLItz, SAX sensors, 3'-biotinylated aptamer 1 µM) in binding buffer, 2200 rpm; buffer composition, pH and temperature not in material; plate capture 30 min; fibrinogen competition 30 min at RT; settings: protein: recombinant; chain copies: 2; label: biotin (capture)

Molecule | inhibition of FXIIIa isopeptidase activity (fluorogenic peptide substrate, 12.8 nM FXIIIa) by tridegin, up to 12 µM [1] [%] | Kd [2] [nM] | IC50 [3] [nM] | binding signal [4] [% captured] | binding result [5]
Tridegin (peptide) | 50 |  |  |  | 
FA2 (ssDNA) DNA: AAGCAGTGGTAAGTAGGTTGAGCTTTCATCACCCGTCGGTTAGACTAAGTCTCCAGCATCCTCTCTTCGAGCAATCCACAC |  | 79.1 | 39.3 |  | 
FA12 (ssDNA) DNA: AAGCAGTGGTAAGTAGGTTGATCATCCTCTTTAAGTCATCACTTTAGTTTCTCCATCTACATCTCTTCGAGCAATCCACAC |  | 51.8 | 38 | 10 | 
TACTGTCACGAGGATATAGCACATTAGTTCAGATACGATTGTTACTGTCA (ssDNA) [negative control oligonucleotide] |  |  |  |  | no binding
FA8 (ssDNA) DNA: AAGCAGTGGTAAGTAGGTTGATCATCATGTTATTTTTGTTCCATCACGCCAGTTCTGGTTCTCTCTTCGAGCAATCCACAC |  | 79.1 | 136 |  | 
FA6 (ssDNA) DNA: AAGCAGTGGTAAGTAGGTTGACGCTGCGGGCATCACGTAAGTTAATATATCACTCGGCTATTCTCTTCGAGCAATCCACAC |  | 93.5 | 57 | ~5 | 
FA1 (ssDNA) DNA: AAGCAGTGGTAAGTAGGTTGACCATCCGCCGATTAGGCAATCACGTGGCTTAGGCACCGTATCTCTTCGAGCAATCCACAC |  | 50.4 | 89.5 |  | 
FA3 (ssDNA) DNA: AAGCAGTGGTAAGTAGGTTGACCATCGTAGTTCGTACACCAGTCCATTCTAGGACTCACAATCTCTTCGAGCAATCCACAC |  | 92.9 | 66.2 | ~5 | 
